# Experimental data reported in US20080020978A1 (Amgen, published 2008).
# Bridge positions count the residues as written; N and C are the ends. Square brackets hold non-standard residues; d marks the D form. Oic = O=C(O)[C@@H]1C[C@@H]2CCCC[C@@H]2N1; 1Nal = N[C@@H](Cc1cccc2ccccc12)C(=O)O; hArg = N=C(N)NCCCC[C@H](N)C(=O)O; Tic = O=C(O)[C@@H]1Cc2ccccc2CN1; Cit = NC(=O)NCCC[C@H](N)C(=O)O
# Molecular target: CGRP1 receptor (CRLR/RAMP1 complex) of human neuroblastoma SK-N-MC cells (human, UniProt Q16602 23-461; O60894 27-148)
# Test: cell-based or functional assay
# CGRP1 receptor (CRLR/RAMP1 complex) of human neuroblastoma SK-N-MC cells, sequence (Q16602 23-461, chain 1 of 2): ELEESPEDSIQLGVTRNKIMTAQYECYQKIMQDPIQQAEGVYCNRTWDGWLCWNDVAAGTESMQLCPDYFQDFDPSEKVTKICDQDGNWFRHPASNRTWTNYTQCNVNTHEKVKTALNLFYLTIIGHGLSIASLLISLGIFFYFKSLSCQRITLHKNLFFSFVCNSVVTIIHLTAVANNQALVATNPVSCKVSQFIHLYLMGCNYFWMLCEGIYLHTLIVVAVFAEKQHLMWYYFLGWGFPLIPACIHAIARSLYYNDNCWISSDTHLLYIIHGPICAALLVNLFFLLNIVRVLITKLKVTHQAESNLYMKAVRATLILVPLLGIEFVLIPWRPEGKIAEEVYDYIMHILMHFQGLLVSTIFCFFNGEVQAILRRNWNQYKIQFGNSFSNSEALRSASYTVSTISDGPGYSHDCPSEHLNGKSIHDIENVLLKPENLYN
# CGRP1 receptor (CRLR/RAMP1 complex) of human neuroblastoma SK-N-MC cells, sequence (O60894 27-148, chain 2 of 2): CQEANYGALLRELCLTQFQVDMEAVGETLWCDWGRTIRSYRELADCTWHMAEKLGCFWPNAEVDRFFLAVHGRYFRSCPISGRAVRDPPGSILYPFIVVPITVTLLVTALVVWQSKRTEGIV
Peptide IC50,PEG-peptide IC50,Binder
1.3 nM,,Ac-WVTHRLAGLLPRSGGVVRKNFVPTDVGPFAF-NH2 [SEQ ID NO 858]
2.57 nM,,WVTHXLAGLLSXSGGVVXKNFVXTDVGXFAX (Ac-WVTH[Cit]LAGLLS[Cit]SGGVV[hArg]KNFV[Oic]TDVG[Oic]FA[2-Nal]-NH2) [SEQ ID NO 948]
3.57 nM,,WVTHXLAGLLSXSGGVVXKNXVXTDVGXFAX (Ac-WVTH[Cit]LAGLLS[Cit]SGGVV[hArg]KN[2-Nal]V[Oic]TDVG[Oic]FA[2-Nal]-NH2) [SEQ ID NO 955]
3.45 nM,,WVTHXLAGLLSXSGGVVXKNXVPTDVGXFAX (Ac-WVTH[Cit]LAGLLS[Cit]SGGVV[hArg]KN[2-Nal]VPTDVG[Oic]FA[2-Nal]-NH2) [SEQ ID NO 954]
,0.46 nM,"Ac-WVTHRLAGLLSQSGGVVRKNFVPTDVGPFAF-NH2 (also: PEG-conjugated, in most cases at Lys25) [PEG-peptide of SEQ ID NO 856]"
1.45 nM,,Ac-WVTH[Cit]LAGELS[Cit]KGGVV[hArg]KNFVPTDVG[Oic]FAF-NH2 [SEQ ID NO 943]
,60.5 nM,"Ac-WVTHRLAGLASRPGGVVRKNFVPTDVGPFAF-NH2 (also: PEG-conjugated, in most cases at Lys25) [PEG-peptide of SEQ ID NO 859]"
0.83 nM,,Ac-WVTH[hArg]LEGLLK[Cit]SGGVV[hArg]KNFVPTDVG[Oic]FAF-NH2 (lactam (positions not given here); not fully specified; printed as Ac-WVTH[hArg]LEGLLK[Cit]SGGVV[hArg]KNFVPTDVG[Oic]FAF-NH2) [SEQ ID NO 942]
0.47 nM,,Ac-WVTHRLAGLLSQSGGVVRKNFVPTDVGPFAF-NH2 [SEQ ID NO 856]
,5 nM,"Ac-WVTHRLAGLLPRSGGVVRKNFVPTDVGPFAF-NH2 (also: PEG-conjugated, in most cases at Lys25) [PEG-peptide of SEQ ID NO 858]"
1.41 nM,,Ac-WVTHRLAGLASRPGGVVRKNFVPTDVGPFAF-NH2 [SEQ ID NO 859]
3.02 nM,,Ac-WVTH[Cit]LAGLLS[Cit]SGGVVRKNFVPTDVG[Tic]FAF-NH2 [SEQ ID NO 956]
1.42 nM,,Ac-WVTHRLAGLLSRPGGVVRKNFVPTDVGPFAF-NH2 [SEQ ID NO 860]
0.85 nM,,Ac-WVTH[Cit]LAGELS[hArg]KGGVV[hArg]KNFVPTDVG[Oic][1Nal]AF-NH2 (lactam 9-13; SMILES CC(=O)N[C@@H](Cc1c[nH]c2ccccc12)C(=O)N[C@H](C(=O)N[C@H](C(=O)N[C@@H](Cc1c[nH]cn1)C(=O)N[C@@H](CCCNC(N)=O)C(=O)N[C@@H](CC(C)C)C(=O)N[C@@H](C)C(=O)NCC(=O)N[C@H]1CCC(=O)NCCCC[C@@H](C(=O)NCC(=O)NCC(=O)N[C@H](C(=O)N[C@H](C(=O)N[C@@H](CCCCNC(=N)N)C(=O)N[C@@H](CCCCN)C(=O)N[C@@H](CC(N)=O)C(=O)N[C@@H](Cc2ccccc2)C(=O)N[C@H](C(=O)N2CCC[C@H]2C(=O)N[C@H](C(=O)N[C@@H](CC(=O)O)C(=O)N[C@H](C(=O)NCC(=O)N2[C@H](C(=O)N[C@@H](Cc3cccc4ccccc34)C(=O)N[C@@H](C)C(=O)N[C@@H](Cc3ccccc3)C(N)=O)C[C@@H]3CCCC[C@@H]32)C(C)C)[C@@H](C)O)C(C)C)C(C)C)C(C)C)NC(=O)[C@H](CCCCNC(=N)N)NC(=O)[C@H](CO)NC(=O)[C@H](CC(C)C)NC1=O)[C@@H](C)O)C(C)C) [SEQ ID NO 944]
4.32 nM,,Ac-WVTH[Cit]LAGLLS[Cit]SGGVVRKNFVPTDVG[Tic]FAF-NH2 [SEQ ID NO 957]
,6.21 nM,"Ac-WVTHQLAGLLSQSGGVVRKNFVPTDVGPFAF-NH2 (also: PEG-conjugated, in most cases at Lys25) [PEG-peptide of SEQ ID NO 857]"
89.9 nM,,WVTHXLAGLLSXSGGVVXKNFVPTDVGPXAF (Ac-WVTH[Cit]LAGLLS[Cit]SGGVV[hArg]KNFVPTDVGP[Tic]AF-NH2) [SEQ ID NO 947]
0.57 nM,,WVTHXLAGLLSRSGGVVRKNFVPTDVGPFAF (Ac-WVTH[Cit]LAGLLSRSGGVVRKNFVPTDVGPFAF-NH2) [SEQ ID NO 861]
2.24 nM,,WVTHXLAGLLSXSGGVVXKNFVPTDVGPXAF (Ac-WVTH[Cit]LAGLLS[Cit]SGGVV[hArg]KNFVPTDVGP[1-Nal]AF-NH2) [SEQ ID NO 960]
10.1 nM,,WVTHXLAGLLSXSGGVVRKNFVPTDVGPXAF (Ac-WVTH[Cit]LAGLLS[Cit]SGGVVRKNFVPTDVGP[Tic]AF-NH2) [SEQ ID NO 962]
2.73 nM,,WVTHXLAGLLSXSGGVVXKNFVXTDVGPXAX (Ac-WVTH[Cit]LAGLLS[Cit]SGGVV[hArg]KNFV[Oic]TDVGP[1-Nal]A[2-Nal]-NH2) [SEQ ID NO 949]
,2.08 nM,WVTHXLAGLLSRSGGVVRKNFVPTDVGPFAF (Ac-WVTH[Cit]LAGLLSRSGGVVRKNFVPTDVGPFAF-NH2; PEG-conjugated (Table 2C: in most cases at Lys^25)) [PEG-peptide of SEQ ID NO 861]
3.22 nM,,WVTHXLAGLLSXSGGVVXKNFVXTDVGPFAX (Ac-WVTH[Cit]LAGLLS[Cit]SGGVV[hArg]KNFV[Oic]TDVGPFA[2-Nal]-NH2) [SEQ ID NO 951]
3.85 nM,,WVTHXLAGLLSXSGGVVXKNFVXTDVGPXAF (Ac-WVTH[Cit]LAGLLS[Cit]SGGVV[hArg]KNFV[Oic]TDVGP[Bip]AF-NH2) [SEQ ID NO 950]
2.34 nM,,WVTHXLAGLLSXSGGVVXKNXVXTDVGPXAF (Ac-WVTH[Cit]LAGLLS[Cit]SGGVV[hArg]KN[pI-Phe]V[Oic]TDVGP[pI-Phe]AF-NH2) [SEQ ID NO 952]
,16.7 nM,"Ac-WVTHRLAGLLSRPGGVVRKNFVPTDVGPFAF-NH2 (also: PEG-conjugated, in most cases at Lys25) [PEG-peptide of SEQ ID NO 860]"
0.53 nM,,Ac-WVTHQLAGLLSQSGGVVRKNFVPTDVGPFAF-NH2 [SEQ ID NO 857]
13 nM,,Ac-KWVTH[Cit]LAGLLS[Cit]SGGVVRKNFVPTDVGPKAF-NH2 (SMILES CC(=O)N[C@@H](CCCCN)C(=O)N[C@@H](Cc1c[nH]c2ccccc12)C(=O)N[C@H](C(=O)N[C@H](C(=O)N[C@@H](Cc1c[nH]cn1)C(=O)N[C@@H](CCCNC(N)=O)C(=O)N[C@@H](CC(C)C)C(=O)N[C@@H](C)C(=O)NCC(=O)N[C@@H](CC(C)C)C(=O)N[C@@H](CC(C)C)C(=O)N[C@@H](CO)C(=O)N[C@@H](CCCNC(N)=O)C(=O)N[C@@H](CO)C(=O)NCC(=O)NCC(=O)N[C@H](C(=O)N[C@H](C(=O)N[C@@H](CCCNC(=N)N)C(=O)N[C@@H](CCCCN)C(=O)N[C@@H](CC(N)=O)C(=O)N[C@@H](Cc1ccccc1)C(=O)N[C@H](C(=O)N1CCC[C@H]1C(=O)N[C@H](C(=O)N[C@@H](CC(=O)O)C(=O)N[C@H](C(=O)NCC(=O)N1CCC[C@H]1C(=O)N[C@@H](CCCCN)C(=O)N[C@@H](C)C(=O)N[C@@H](Cc1ccccc1)C(N)=O)C(C)C)[C@@H](C)O)C(C)C)C(C)C)C(C)C)[C@@H](C)O)C(C)C) [SEQ ID NO 945]
